Source: patent US20030235860A1, “Interactions between AR, ER, TR2, and TR4” (priority 1999, published 2003)
No end group written: not given here.

T1: GST-TR2 (Homo sapiens, UniProt P13056)
T1 construct: pGEX-3x-TR2 were constructed by inserting full-length TR2 fragments to individual vectors; made in house; host or cells: E. coli BL21(DE3) pLysS
T1 sequence (P13056 1-603): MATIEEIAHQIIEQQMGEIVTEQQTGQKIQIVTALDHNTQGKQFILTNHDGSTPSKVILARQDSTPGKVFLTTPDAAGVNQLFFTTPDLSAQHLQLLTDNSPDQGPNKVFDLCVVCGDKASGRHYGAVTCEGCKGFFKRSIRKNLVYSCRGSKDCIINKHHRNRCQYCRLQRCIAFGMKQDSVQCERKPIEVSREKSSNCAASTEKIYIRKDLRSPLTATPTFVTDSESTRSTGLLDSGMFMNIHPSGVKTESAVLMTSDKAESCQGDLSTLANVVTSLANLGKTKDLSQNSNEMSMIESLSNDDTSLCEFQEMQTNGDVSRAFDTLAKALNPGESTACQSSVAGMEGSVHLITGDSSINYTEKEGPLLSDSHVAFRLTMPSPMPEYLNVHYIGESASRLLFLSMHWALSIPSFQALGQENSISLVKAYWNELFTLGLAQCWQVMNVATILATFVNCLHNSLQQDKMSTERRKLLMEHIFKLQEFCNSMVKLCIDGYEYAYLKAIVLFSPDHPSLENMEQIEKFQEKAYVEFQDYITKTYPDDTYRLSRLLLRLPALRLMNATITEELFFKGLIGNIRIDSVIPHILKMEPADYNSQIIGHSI


Experiments:
[1] = target: T1, GST-TR2; assay: GST-TR2 pull-down assay; assay type: binding; settings: for Interaction with GST-TR2 fusion protein: 35S methionine-labeled proteins, Example 4; for Interaction with GST-TR2 in pull-down assay / Direct interaction with GST-TR2 fusion protein: in vitro translated [35S]-labeled proteins; for Interaction with GST-TR2 in pull-down assay: Example 1; for Direct interaction with GST-TR2 fusion protein: Example 2
Procedure: Fusion proteins of GST-TR2, GST-ER segments and GST were obtained by transforming expressing plasmids into BL21(DE3) pLysS competent bacteria followed with 2-hour IPTG induction. GST-proteins were then purified by mixing Glutathione-Sepharose™ 4B (Pharmacia) into bacteria lysates on a rotating disk at 4° C. for 40 mm followed by washing with 1 mL NENT buffer (20 mM Tris-HCL (pH 8.0), 100 mM NaCl, 1 mM EDTA, 6 mM MgCl2, 1 mM Dithiothretiol, 8% Glycerol, 1 mM PMSF and 0.5% (v/v) NP-40). The ER, AR, RXRA., and TR2 proteins labeled with [35S] were generated in vitro by using the TNT reticulocyte lysate system (Promega). For the in vitro interaction, the glutathione-Sepharose bound GST-proteins were resuspended with 100 μl of interaction buffer (20 mM HEPES pH 7.9, 150 mM KCl, 5 mM MgCl2. 0.5 mM EDTA, 0.5 mM Dithiothretiol, 0.1% (v/v) NP-40, 0.1% (w/v) BSA and 1 mM PMSF) and mixed with 5 μl of […] at 4° C. for 3 h. After extensive washes with NENT buffer, the bound proteins were separated on an SDS/8% PAGE and visualized by using autoradiography.
GST alone and GST fusion proteins were purified by Glutathione-Sepharose 4B beads as instructed by manufacturer (Amersham Pharmacia). The pull-down assay was performed with 5 μl of in vitro-translated [^35S]-labeled proteins as described previously (Yeh, S. et al. (2000) Proc. Natl. Acad. Sci. USA 97, 11256-61).
GST control protein and GST-TR2 fusion protein were purified by glutathione-sepharose 4B beads as described by manufacture (Amersham. Biosciences). Five microliters of in vitro-translated 35S-methionine-labeled proteins was used to perform the Pull-down assay as described previously [4F].

[2] = target: T2, ERβ (Mus musculus, UniProt O08537); assay: ERβ-mediated transactivation (ERE reporter); assay type: cell-based
T2 construct: expressed in transfected cells; host or cells: HEK293 (TR2 experiment), H1299 (TR4 experiment)
Procedure: (A) TR2 repression of ER-mediated ERE-tk-CAT reporter genes in PC-3, H1299, MCF7, and T47D cells. Cells in 60-mm dishes were co-transfected with […] of ERE-CAT, pSG5-ER, and/or pCMV-TR2 by calcium phosphate precipitation methods. 1 mg of b-galactosidase expression plasmid, pCMV-b-gal, was used as an internal control for transfection efficiency. CAT activity is presented relative to the response to ethanol, which is set as one. (B) MCF7-pBIG and MCF7-TR2 cells were stably transfected with doxycycline-inducible pBIG2i and pBIG2I-FLAG-TR2 plasmids, respectively. Cells were transfected with […] of pCMV-b-gal and, after 16 hr, were treated with or without […] doxycycline. […] FLAG-TR2 induction was monitored by Western blotting using anti-FLAG antibody (M2), shown in the upper panel. […] Relative mRNA expression amounts were normalized by 28S expression and quantitated by ImageQuant V.1.2 (Molecular Dynamics). […] Luciferase activity was analyzed following manufacturer's instructions (Promega). […]
H1299 and MCF-7 cells were maintained in Dulbecco's modified eagle medium (DMEM) containing penicillin (25 units/ml), streptomycin (25 μg/ml), and 10% fetal calf serum (FBS). […] The CAT activity was visualized by Phosphorlmager (Molecular Dynamics) and quantitated by IMAGEQUANT software (Molecular Dynamics). The luciferase activity was determined by the Luminometer (Turner Designs).

T2 sequence (O08537 whole entry): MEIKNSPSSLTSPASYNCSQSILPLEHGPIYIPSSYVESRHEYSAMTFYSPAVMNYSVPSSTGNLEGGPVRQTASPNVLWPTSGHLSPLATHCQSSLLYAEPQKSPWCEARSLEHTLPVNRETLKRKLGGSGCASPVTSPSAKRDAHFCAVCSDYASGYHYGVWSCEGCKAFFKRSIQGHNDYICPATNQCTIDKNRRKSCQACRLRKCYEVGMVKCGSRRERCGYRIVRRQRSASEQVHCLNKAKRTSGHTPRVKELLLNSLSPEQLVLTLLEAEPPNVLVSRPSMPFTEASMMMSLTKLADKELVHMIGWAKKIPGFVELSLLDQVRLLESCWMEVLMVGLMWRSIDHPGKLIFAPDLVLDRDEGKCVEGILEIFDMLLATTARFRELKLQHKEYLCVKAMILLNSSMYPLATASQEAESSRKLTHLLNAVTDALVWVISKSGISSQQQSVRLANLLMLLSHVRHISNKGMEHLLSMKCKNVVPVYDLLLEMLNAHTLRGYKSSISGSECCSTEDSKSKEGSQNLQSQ

Molecule | Interaction with GST-TR2 fusion protein [1] | Interaction with GST-TR2 in pull-down assay [1] | Direct interaction with GST-TR2 fusion protein [1] | further results
AR: androgen receptor, SEQ ID NO:31 | able to interact | can interact well | directly interact | –
ER-#6: interaction blocker, ER fragment aa 312-340, as HA-tagged peptide, expression plasmid or cleaved peptide (ADQMVSALLDAEPPILYSEYDPTRPFSEA; also: HA tag (position not given here); UniProt P03372 312-340, looked up, fragment) | – | – | – | Interaction of GST-TR2 with [35S]-labeled ER ([1]; increasing amounts of HA-ER-#6 peptide, absence of E2): inhibited
RXR: retinoid X receptor, another member of the steroid receptor superfamily | not able to interact | not | not | –
TR4: human testicular orphan nuclear receptor 4, SEQ ID NO:16; expressed from plasmid or in vitro translated (protein) MTSPSPRIQIISTDSAVASPQRIQGSEPASGPLSVFTSLNKEKIVTDQQTGQKIQIVTAVDASGSPKQQFILTSPDGAGTGKVILASPETSSAKQLIFTTSDNLVPGRIQIVTDSASVERLLGKTDVQRPQVVEYCVVCGDKASGRHYGAVSCEGCKGFFKRSVRKNLTYSCRSSQDCIINKHHRNRCQFCRLKKCLEMGMKMESVQSERKPFDVQREKPSNCAASTEKIYIRKDLRSPLIATPTFVADKDGARQTGLLDPGMLVNIQQPLIREDGTVLLATDSKAETSQGALGTLANVVTSLANLSESLNNGDTSEIQPEDQSASEITRAFDTLAKALNTTDSSSSPSLADGIDTSGGGSIHVISRDQSTPIIEVEGPLLSDTHVTFKLTMPSPMPEYLNVHYICESASRLLFLSMHRARSIPAFQGLGQDCNTSLVRACWNELFTLGLAQCAQVMSLSTILAAIVNHLQNSIQEDKLSGDRIKQVMEHIWKLQEFCNSMANWDIDGYEYAYLKAIVLFSPDHPGLTSTSQIEKFQEKAQMELQDYVQKTYSEDTYRLARILVRLPALRLMSSNITEELFFTGLIGNVSIDSIIPYILKMETAEYNGQITGVSL | – | – | – | E2-induced ERE-CAT activity, ERβ ([2]; H1299 cells, 10 nM E2, increasing TR4 expression plasmid): suppression of the E2-induced CAT activity in a dose-dependent manner
TR2: human testicular orphan nuclear receptor 2, 603 amino acids (protein, UniProt P13056 1-603, looked up, full-length, human testicular orphan nuclear receptor 2, 603 amino acids) MATIEEIAHQIIEQQMGEIVTEQQTGQKIQIVTALDHNTQGKQFILTNHDGSTPSKVILARQDSTPGKVFLTTPDAAGVNQLFFTTPDLSAQHLQLLTDNSPDQGPNKVFDLCVVCGDKASGRHYGAVTCEGCKGFFKRSIRKNLVYSCRGSKDCIINKHHRNRCQYCRLQRCIAFGMKQDSVQCERKPIEVSREKSSNCAASTEKIYIRKDLRSPLTATPTFVTDSESTRSTGLLDSGMFMNIHPSGVKTESAVLMTSDKAESCQGDLSTLANVVTSLANLGKTKDLSQNSNEMSMIESLSNDDTSLCEFQEMQTNGDVSRAFDTLAKALNPGESTACQSSVAGMEGSVHLITGDSSINYTEKEGPLLSDSHVAFRLTMPSPMPEYLNVHYIGESASRLLFLSMHWALSIPSFQALGQENSISLVKAYWNELFTLGLAQCWQVMNVATILATFVNCLHNSLQQDKMSTERRKLLMEHIFKLQEFCNSMVKLCIDGYEYAYLKAIVLFSPDHPSLENMEQIEKFQEKAYVEFQDYITKTYPDDTYRLSRLLLRLPALRLMNATITEELFFKGLIGNIRIDSVIPHILKMEPADYNSQIIGHSI | – | – | – | ERβ-mediated transcription (ERE-Luc) ([2]; HEK293 cells, TR2): suppress
